Laboratory results from article PMC11707192 (Nature Communications, 2025).

T1: UHRF1 TTD-PHD (deletion 167-175) (human, UniProt Q96T88 134-366, deletion 167-175)
T1 sequence (looked up): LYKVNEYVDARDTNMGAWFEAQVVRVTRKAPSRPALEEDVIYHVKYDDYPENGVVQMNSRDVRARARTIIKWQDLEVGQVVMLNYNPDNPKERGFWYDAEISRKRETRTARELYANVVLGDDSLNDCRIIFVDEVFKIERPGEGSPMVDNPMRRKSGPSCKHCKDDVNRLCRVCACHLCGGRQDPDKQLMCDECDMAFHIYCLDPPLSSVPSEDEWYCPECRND

B1: hSTE-1 (peptide of the hSTELLA Swap1 region, residues 75-121) (peptide, UniProt Q6W0C5 75-121, looked up)
peptide: EDEWLYSRRGVRTLLSVQREKMARLRYMLLGGVRTHERRPTNKEPKG
B2: UHRF1 TTD-PHD (134-366) (domain or fragment, human, UniProt Q96T88 134-366, looked up)
chain: LYKVNEYVDARDTNMGAWFEAQVVRVTRKAPSRDEPCSSTSRPALEEDVIYHVKYDDYPENGVVQMNSRDVRARARTIIKWQDLEVGQVVMLNYNPDNPKERGFWYDAEISRKRETRTARELYANVVLGDDSLNDCRIIFVDEVFKIERPGEGSPMVDNPMRRKSGPSCKHCKDDVNRLCRVCACHLCGGRQDPDKQLMCDECDMAFHIYCLDPPLSSVPSEDEWYCPECRND
B3: mSTE-1 (peptide of the mSTELLA Swap1 region, residues 80-119) (peptide, UniProt Q8QZY3 80-119, looked up)
peptide: QSAFPKRRVRTLLSVLKDPIAKMRRLVRIEQRQKRLEGNE
B4: UHRF1 PHD domain (298-367) (domain or fragment, human, UniProt Q96T88 298-367, looked up)
chain: SGPSCKHCKDDVNRLCRVCACHLCGGRQDPDKQLMCDECDMAFHIYCLDPPLSSVPSEDEWYCPECRNDA

Columns and labels:
[1] = biological target: T1, UHRF1 TTD-PHD (deletion 167-175); test: crystal structure
[2] = biological target: B4; test: ITC
[3] = biological target: B2; test: ITC
[4] = biological target: B3; test: ITC
[5] = biological target: B1; test: ITC

binding result [1]	Kd [2] [nM]	Kd [3] [nM]	Binder	also measured
binds			KRRVRTLLSVLKDPIAKMRRLVRIEQRQKRLEGNE (peptide, UniProt Q8QZY3 85-119, looked up) [mSTE-2 (truncated peptide within mSTE-1, residue 85-119)]	binding result [2]: binds
binds	818	786	B1	
			B2	fold more potent affinity than the H3K9me3 tail [4]: > 30 fold; fold weaker affinity than the H3K9me3 tail [5]: 4 fold
	91.2	5.84	B3	
			B4	stoichiometry N [4]: 1; stoichiometry N [5]: 1
